# Laboratory results reported in patent US20160303232A1 (Merrimack Pharmaceuticals, Inc., priority 2015, published 2016).
# “Also recorded” adds a separate entry of the source. Counter-ions that a name gives are not always drawn.
# B1: seribantumab: human monoclonal anti-ErbB3 IgG2; heavy chain SEQ ID NO:7, light chain SEQ ID NO:8 (antibody, listed as Homo sapiens)
# heavy: EVQLLESGGGLVQPGGSLRLSCAASGFTFSHYVMAWVRQAPGKGLEWVSSISSSGGWTLYADSVKGRFTISRDNSKNTLYLQMNSLRAEDTAVYYCTRGLKMATIFDYWGQGTLVTVSSASTKGPSVFPLAPCSRSTSESTAALGCLVKDYFPEPVTVSWNSGALTSGVHTFPAVLQSSGLYSLSSVVTVPSSNFGTQTYTCNVDHKPSNTKVDKTVERKCCVECPPCPAPPVAGPSVFLFPPKPKDTLMISRTPEVTCVVVDVSHEDPEVQFNWYVDGVEVHNAKTKPREEQFNSTFRVVSVLTVVHQDWLNGKEYKCKVSNKGLPAPIEKTISKTKGQPREPQVYTLPPSREEMTKNQVSLTCLVKGFYPSDIAVEWESNGQPENNYKTTPPMLDSDGSFFLYSKLTVDKSRWQQGNVFSCSVMHEALHNHYTQKSLSLSPGK
# light: QSALTQPASVSGSPGQSITISCTGTSSDVGSYNVVSWYQQHPGKAPKLIIYEVSQRPSGVSNRFSGSKSGNTASLTISGLQTEDEADYYCCSYAGSSIFVIFGGGTKVTVLGQPKAAPSVTLFPPSSEELQANKATLVCLVSDFYPGAVTVAWKADGSPVKVGVETTKPSKQSNNKYAASSYLSLTPEQWKSHRSYSCRVTHEGSTVEKTVAPAECS
# Legend:
# [1] = system: NSCLC cell lines (A549, EKVX, H358, H322M, Calu-3, H661, H441, H1355, H430); assay: 3D spheroid proliferation assay with or without HRG and chemotherapy; format: cell-based, human; settings: 5 nM HRG; docetaxel 111 nM, pemetrexed 1111 nM; 96hrs; three cell lines most responsive to HRG
# Method: HRG-driven ErbB3 signaling mediates survival signaling through the PI3K/AKT pathway and has been implicated as a general mechanism that imparts insensitivity to cytotoxic chemotherapy. […] Proliferation was measured, in the presence or absence of HRG, in a panel of nine cell lines using 3D spheroid cultures.
# [2] = system: human ovarian epithelial carcinoma OVCAR8 cells; assay: OVCAR8 xenograft model of ovarian cancer, combination therapy study; format: in vivo, mouse; settings: for tumor progression over time: FIGS. 7A-7C, monotherapy versus co-administration with fixed dose of seribantumab; for tumor growth, single agent: i.p., seribantumab 300 μg Q3D, irinotecan HCl 6.25 mg/kg Q7D, gemcitabine 25 mg/kg Q7D, paclitaxel 10 mg/kg Q7D, three weeks
# Description: In these xenograft studies, the mice were obtained from Charles River Laboratories. The mice were housed in Tecniplast® Individually Ventilated polycarbonate (Makrolon®) Cages (IVC) set in climate-controlled rooms and had free access to food and acidified water. A cell suspension of 8×10^6 cells/mouse, mixed 1:1 in reduced growth factor Matrigel™ (BD Biosciences, Cat #354230) and PBS was implanted by subcutaneous injection into the left flank of female, 4-5 week old nu/nu nude, Crl:NU-Foxn1^nu mice. Tumors were allowed to reach 250 mm^3 in size before randomization.
# Mice were randomized as above into 8 groups of 10 mice each. […] Treatment continued for three weeks. Tumors were measured twice weekly and tumor volume calculated.
# [3] = Clinical studies of seribantumab co-administered with full doses of chemotherapy (MTD, safety); format: in vivo, human; settings: co-administered with standard doses of pemetrexed, paclitaxel or cabazitaxel; 40 mg/kg loading dose then weekly 20 mg/kg
# [4] = Population pharmacokinetic analysis of seribantumab, combined phase I and phase II studies, two-compartment model; format: in vivo, human
# Description: Covariate selection evaluated potential relationships between baseline covariates (sex, race, age, weight, intended-dose, and study/indication) and volume of distribution and clearance. The results indicated significant relationships between weight, sex, and clearance, with the final parameter estimates provided in Table 1. […] In the presence of the relationship between weight and clearance, no significant relationship between volume (V) and weight (WT) were observed.
# [5] = system: HRG positive (HRG+) tumors; assay: Previous randomized phase II clinical trials of seribantumab plus standard of care, by HRG expression; format: in vivo, human; settings: seribantumab added to standard-of-care therapy; patients with HRG expression at or above threshold / HRG+ tumors
# [6] = fixed effect, final population PK estimate, 499 patients
Molecule,effect of HRG on inhibition of cell viability by chemotherapy (HRG-induced resistance) [1],tumor progression over time [2],"tumor growth, single agent [2]",also measured
"CC(=O)O[C@@]12CO[C@@H]1C[C@H](O)[C@@]1(C)C(=O)[C@H](O)C3=C(C)[C@@H](OC(=O)[C@H](O)[C@@H](NC(=O)OC(C)(C)C)c4ccccc4)C[C@@](O)([C@@H](OC(=O)c4ccccc4)[C@H]21)C3(C)C [docetaxel, 1,7β,10β-trihydroxy-9-oxo-5β,20-epoxytax-11-ene-2α,4,13α-triyl 4-acetate 2-benzoate 13-{(2R,3S)-3-[(tert-butoxycarbonyl)amino]-2-hydroxy-3-phenylpropanoate}]",induces resistance; also recorded: decreased,,,
Nc1ccn([C@@H]2O[C@H](CO)[C@@H](O)C2(F)F)c(=O)n1 [gemcitabine],,began to progress over time,inhibited tumor growth,
CCc1c2c(nc3ccc(OC(=O)N4CCC(N5CCCCC5)CC4)cc13)-c1cc3c(c(=O)n1C2)COC(=O)[C@]3(O)CC [irinotecan HCl],,began to progress over time,inhibited tumor growth,
CC(=O)O[C@H]1C(=O)[C@@]2(C)[C@H]([C@H](OC(=O)c3ccccc3)[C@]3(O)C[C@H](OC(=O)[C@H](O)[C@@H](NC(=O)c4ccccc4)c4ccccc4)C(C)=C1C3(C)C)[C@]1(OC(C)=O)CO[C@@H]1C[C@@H]2O [paclitaxel],,began to progress over time,inhibited tumor growth,
"Nc1nc(=O)c2c(CCc3ccc(C(=O)N[C@@H](CCC(=O)O)C(=O)O)cc3)c[nH]c2[nH]1 [pemetrexed, (2S)-2-{[4-[2-(2-amino-4-oxo-1,7-dihydropyrrolo[2,3-d]pyrimidin-5-yl)ethyl]benzoyl]amino}pentanedioic acid]",induces resistance; also recorded: decreased,,,
B1,,,significantly suppressed tumor growth,"maximum tolerated dose (MTD) [3]: no MTD was identified; also recorded: no maximum tolerated dose (MTD) reached; CL [4, 6]: 3.15 L/wk; Q [4, 6]: 2.92 L/wk; V [4, 6]: 3.23 L; V2 [4, 6]: 2.68 L; Cov CL and V ([4]; random effect): 27%; Omega CL ([4]; random effect): 36%; Omega V ([4]; random effect): 37%; progression-free survival (PFS) [5]: improved progression-free survival; also recorded: increased PFS"
